Here are results for 34 sequences from a protein production outcome set (Wang et al. 2014).
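Further: failed if final PepcDB status was selected cloned or expressed and not failed if soluble or beyond.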

The data set in a line: label from the status in PepcDB records.
For the sequence “DRLRAFNHRLQNTPESVKVLRDWNMELDKNVTEVQGRIIGQQNIVFHNGKVPAGENADWQRHFRDQRMLTTPSDGLDRWAVIAPQRNSHELRTLLDSLYR”, the protein production result is “failed”.

For “DRRYKWQTVVSEQLVGAGFNEILNNSLTAGSYYEGLKTHPREMAVELMNPLSQELNCMRQTLLFGGLETLSHNLRRKHLSLYLFEWGKCYRFHAAKRTDETPLSAYAEDDRLGIWICGQRVHNSWAHPEEPTSVFELKAVVEQVLCRVGIETGAYTLETADNDLYASAMEVKTRSGKLLGTFGTVSTEQIKRFDIEQPVYFAELLWDALMSESARYKLEARD”, the protein production entry is “failed”.

Turning to “DRTTYYSILGLTSNATSSEVHKSYLKLARLLHPDKTKSDKSEELFKAVVHAHSILTDEDQKLRYDRDLKIKGLHTYQPKK”, the protein production result is listed as “failed”.

As to “DSVDLCIMEILKDILDLFHGGRVYIFEYDEYYRYQDCTYEVVAEGVLPEIDSLQRIPTDSLPWWRQQTLSGKPVILDSLDQLPKHAKAEYAILSRQNIKSLMITPLIAGEHVWGYMGIDLVKNYRNWNNEDFQWLSSLANIISICIELRKAKDEAVRERSFLRNLFRFMPMGYIRMTMVRDAAGLP”, the protein production result is reported as “failed”.

“DYIEMKVPAQPEYVGIIRLTLSGVASRMGYTYDEIEDLKIAVSEACTNAVQHAYKEDKNGEVSIRFGVFEDRLEVIVADEGDSFDFDQKQQDLGPYTPSHTVDQLSEGGLGLYLMETLMDEVRVQNHSGVTVAMTKYLNGERVDHDTT”: the protein production entry was “failed”.

On to “DYPIMIICPGGGFTYHSGREEAPIATRMMAAGMHTVVLNYQLIVGDQSVYPWALQQLGATIDWITTQASAHHVDCQRIILAGFSAGGHVVATYNGVATQPELRTRYHLDHYQGQHAAIILGYPVIDLTAGFPTTSAARNQITTDARLWAAQRLVTPASKPAFVWQTATDESVPPINSLKYVQAMLQHQVATAYHLFGSGIHGLALANHVTQKPGKDKYLNDQAAIWPQLALRWLQE”, for which the protein production entry is given as “failed”.

For “EAGGIGIWEWELKPNIFSWDKRMFELYEIPPHIKPNWQVWYECVLPEDRQHAEKVIRDSLQSRSPFKLEFRIAVKDGIRHIRALANRVLNKEGEVERLLGINMDMT”, the protein production entry is recorded as “failed”.

Regarding “EAKAKANTTRSLQALINLQPQQATVITEQGDQQITVEQITLGMKLRIKPGEKVPVDGVVIQGESYIDESMLTGEPVPVLKAQEAQVSAGTLNTDGALIIEATGIGANTMLARIIRMVRTAQSSKPAIAKLADQ”, the protein production entry is listed as “failed”.

With “EAQRELTEMEARTRLTTEMMPAHIAHVGRDLRYTYSNRRLSQVIPGRPSDILGLTGREALGEGLFARIRPCLLRALEGEASVLEFSDEDSGSRIRAAFTPDRTGDGPINGVYILSMDVT”, the protein production result is given as “failed”.

“EASSKSYRELIIEGLTALKERKGSSRPALKKFIKENYPIVGSASNFDLYFNNAIKKGVEAGDFEQPKGPAGAVKLAKK”: the protein production result is recorded as “not failed”.

With “EDATPETVEYRQLSAADLLADTHLLREVFGLLVLAHYRTEPSDLARLLDAPNLTVRALTHEGHVVAVALLAQEGGLSASTRATMYEGGRVRGNMLPDVLSTQLRDEAAGVPVGQRVLRIATHAAVRSRGLGSKLLSEIRAEFADHVDWVGVSYGATPELVRFWADNGYNTVHLATSRNATSGEYSVVMLDP”, the protein production entry is listed as “failed”.

Take “EDFVDPWTVQTSSAKGIDYDKLIVRFGSSKIDKELINRIERATGQRPHHFLRRGIFFSHRDMNQVLDAYENKKPFYLYTGRGPSSEAMHVGHLIPFIFTKWLQDVFNVPLVIQMTDDEKYLWKDLTLDQAYSYAVENAKDIIACGFDINKTFIFSDLDYMGMSSGFYKNVVKIQKHVTFNQVKGIFGFTDSDCIGKISFPAIQAAPSFSNSFPQIFRDRTDIQCLIPCAIDQDPYFRMTRDVAPRIGYPKPALLHSTFFPALQGAQTKMSASDPNSSIFLTDTAKQIKTKVNKHAFSGGRDTIEEHRQFGGNCDVDVSFMYLTFFLEDDDKLEQIRKDYTSGAMLTGELKKALIEVLQPLIAEHQARRKEVTDEIVKEFMTPRKLSFDFQ”: the protein production entry is reported as “not failed”.

For the sequence “EEIRKIPMFSSYNPGEPNKVLYLKNLSPRVTERDLVSLFARFQEKKGPPIQFRMMTGRMRGQAFITFPNKEIAWQALHLVNGYKLYGKILVIEFGKNKKQRS”, the protein production result is “not failed”.

Take “EGALPKASEATVCANNSKVSSPGEKVVLWTREADRVILTMCQEQGAQPHTFSVISQQLGNKTPVEVSHRFRELMQLFHTACE”: the protein production entry was “not failed”.

“EGQPLTRLKHMEPRLMAELGGLCAKLDKALAHFDHPGLARTLQWDPQHAGALIDHLLPVLQDGGQRARIEHATRQANEHLMPLVDQLPSQAVHLDITDDNTVWARDAQRQWQLQGVIDFGDLLRTWRIADLSVTCAALLHHAEGDPLRILPAVQAYQALNPLTEAELRALWPLVLNRAAVLVLSSEQQLTVDPGNQYTRDNIAHEWEIFDTATAVPFALMEAAILQAAGLQPAAP”: the protein production result is “failed”.

“EGWMDEPDWRRFITAYHQEHAGITEQLFSLADTSPYAWLAEPLRAVEGTVLDLACGSAPTRQELPDADWVGVDLSAAELAEAARQGRGPLLRAAADALPAASASVGAVCAAMCLPVVTPLPQTLGEIRRVLRPGGVLAALVPSQSGLSPSGMLGWVRVMAALRAVRQPWPNPQARDGLPALLRTAGFRVRRDERHVFTLAIDSAGAAALLADALYLPGLTTHRAQAAKR”: the protein production result was “failed”.

As to “EGYEQDFAVLTAEITSKIARVPRLPPDEKKQMVANVEKQLEEARELLEQMDLEVREIPPQSRGMYSNRMRSYKQEMGKLETDFKRSRIA”, the protein production result was “not failed”.

As to “EHAKQASSYIPLDRLSISYCRSSGPGGQNVNKVNSKAEVRFHLASADWIEEPVRQKIALTHKNKINKAGELVLTSESSRYQFRNLAECLQKIRDMIAEA”, the protein production result is “not failed”.

For “EHNYHPNAVAAGLRAGRTRSIGLVIPDLENTSYTRIANYLERQARQRGYQLLIACSEDQPDNEMRCIEHLLQRQVDAIIVSTSLPPEHPFYQRWANDPFPIVALDRALDREHFTSVVGADQDDAEMLAEELRKFPAETVLYLGALPELSVSFLREQGFRTAWKDDPREVHFLYANSYEREAAAQLFEKWLETHPMPQALFTTSFALLQGVMDVTLRRDGKLPSDLAIATFGDNELLDFLQCPVLAVAQRHRDVAERVLEIVLASLDEPRKPKPGLTRIKRNLYRRGVLSRS”, the protein production result is given as “not failed”.

Take “EIAQVTSAYVASGSEQLSLAPGQLILILKKNTSGWWQGELQARGKKRQKGWFPASHVKLLGPSSERA”: the protein production result is on record as “not failed”.

In the case of “EIDYTAYPWFAGNMERQQTDNLLKSHASGTYLIRERPAEAERFAISIKFNDEVKHIKVVEKDNWIHITEAKKFDSLLELVEYYQCHSLKESFKQLDTTLKYPYK”, the protein production entry is “failed”.

For “EKIGDRTYRVVSRLSLEDLKDHIEEELDLEIEFGDEIEDQVDTVGGLIAFELGRVPLPGATVETCGLKLTAEGAKNRRGRLRMHSAVVEVGE”, the protein production result is “not failed”.

Consider “EKQSIHRTQLEALDSVITDLETSAQKGISLTEPEIFASLLETCYSLRAIDHGVRVHHLIPPYLLRNNLGISSKLVRLYASCGYAEVAHEVFDRMSKRDSSPFAWNSLISGYAELGQYEDAMALYFQMAEDGVKPDRFTFPRVLKACGGIGSVQIGEAIHRDLVKEGFGYDVYVLNALVVMYAKCGDIVKARNVFDMIPHKDYVSWNSMLTGYLHHGLLHEALDIFRLMVQNGIEPDKVAISSVLARVLSFKHGRQLHGWVIRRGMEWELSVANALIVLYSKRGQLGQACFIFDQMLERDTVSWNAIISAHSKNSNGLKYFEQMHRANAKPDGITFVSVLSLCANTGMVEDGERLFSLMSKEYGIDPKMEHYACMVNLYGRAGMMEEAYSMIVQEMGLEAGPTVWGALLYACYLHGNTDIGEVAAQRLFELEPDNEHNFELLIRIYSKAKRAEDVERVRQMMVDRGLET”, for which the protein production entry is “not failed”.

Take “ELGLRSKTNVVSLDKIIIDKKSSLITGFPEFRMVWKVVRQRVVDDLVSVLDTDYLDMELIPNLTRQIAEQSIYSYIENGLKLLIDYAQKEITIDHSSDRDKILMDIGKDPYVVSIKSKVYLQDGRQFQFTESRHKLEKFRFVDFAKRKK”: the protein production entry is listed as “not failed”.

On to “ELHAELVKRQHLETFLKTQIESELVDVYFQPIIETRTGNVVKFEALARFYHENSEYSTQEMISIIEDLELIAALDDVVCQTALKQWSHLQKIYGENIGLSINRSLNTKLDSLQVLQRSLDLIKASDVNPKLVTIELTETAYFEQDEEHAFALEQIRQEGIQIAIDDFGTGYSSFSYLEEGQFDVLKIDRKFVKNIHEGSTSYNIVKTITDLAHKLNVEVVAEGVESQRELEVLAGIGVDYMQGFLFSQA”, for which the protein production entry is reported as “failed”.

On to “ELPKKRELCKFYITGFCARAENCPYMHGDFPCKLYHTTGNCINGDDCMFSHDPLTEETRELLDKMLADDAEAGAEDEKEVEELKK”, for which the protein production entry is “not failed”.

In the case of “EMVLLPAPQIPLIMKIMKNHTPTWLPGVPTLYEKIVAEATAKGVEIKGIRNSFSGASTLPVRTVEDWENLTGGLLVEGYGLTETSPVLCGNPMNGNRRPGYIGVPFPDTEIRIANPDNLDETMPDGEAGEVLARGPQIFQGYLNKPEATAATFHGDWFRTGDMGVMEEDGFIRLVSRIKEIIITGGFNVYPAEVEEALIAHPDVDDAAVVGRPRKDGSEDVVACIVLKDGAALDPEGLKTHCRKLLTRYKVPRTFYHFEALNKDQLGKVRRREVQQTLLERLGEK”, the protein production entry is on record as “failed”.

Regarding “ENDVRVETTLHQNTRIYDVRGQLFFSSSERFAKAFDFQENVAHVIIDLTHSHIWDVTTVASLDHIVDKFQKNGIQVTVKGLNEASSIMIEQYGTHSKI”, the protein production entry was “failed”.

Take “ENPRNVGSLDKTSKNVGTGLVGAPACGDVMKLQIQVDEKGKIVDARFKTFGCGSAIASSSLATEWVKGKTVEEALTIKNTDIAKELCLPPVKLHCSMLAEDAIKAALADYKLKQESK”: the protein production result is on record as “not failed”.

In the case of “EPAHGRQHTPCLFCDRLFASAEETFSHCKLEHQFNIDSMVHKHGLEFYGYIKLINFIRLKNPTVEYMNSIYNPVPWEKDEYLKPVLEDDLLLQFDVEDLYEPVSTPFS”, the protein production entry is reported as “not failed”.

On to “EPLKDAVLIEGLPGIGHVGRVAAEHIVEEFNGEKVLELYCDDFPPQIVVKNDGTIEYMKNEFYLVKEPVPMVIVLGNTQALSPKGQYVLSEKIVDIAMKYGATKTYTLGGFGIGKISDELKVYVASTSKELSEQHKELGAEFRTDGGSIIGAAGLMLKFSKLKGIEGICLMGETPGYLVDPKSAGNVLEMLSKAIGFEIDMKKLDERAKEMEKFIEKVQMQEQGMQAPQHQDDLSYIG”, for which the protein production result is on record as “failed”.

For “EPNRLIKEKSPYLLQHAYNPVDWYPWGEEAFEKARKENKPVFLSIGYSTCHWCHMMAHESFEDEEVAGLMNEAFVSIKVDREERPDIDNIYMTVCQIILGRGGWPLNIIMTPGKKPFFAGTYIPKNTRFNQIGMLELVPRIKEIWEQQHEEVLDSAEKITSTIQEMIKESSG”, the protein production result is “not failed”.

With “EPVLCSRTTCRAVLNPLCQVDYRAKLWACNFCYQRNQFPPSYAGISELNQPA”, the protein production result was “not failed”.

Consider “EQQADGTWLMDGWISIRKASNLLEHDLVDEAERYSTLGGYLLWQFGYIPAAGEQITVDGLIFEIVSVNKHNIGKVRVHRTQPENE”, for which the protein production entry is “not failed”.
